The values below come from patent US20190231872A1 (INDUSTRY ACADEMIC COOPERATION FOUNDATION HALLYM UNIVERSITY, published 2019).

Read-outs that look alike come from different tables or passages of the source.

The target of assay [1] is T1, hTM4SF5EC2-C cyclic peptide (human, cyclic: disulfide bond between the cysteines that replace glycine 133 and valine 156 (3rd and 26th residue of the peptide); biotinylated for SPR).
T1 construct: Chemically synthesized (Peptron); also called cyclic TM4SF5 peptide; TM4SF5 cyclic peptide
T1 peptide: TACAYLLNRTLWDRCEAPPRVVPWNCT
Briefly: SPR (Reichert SPR 7500DC), biotinylated peptide on streptavidin chip, antibody injected, 25 C. The procedure: (§1) The affinities of anti-hTM4SF5 monoclonal antibody (mEC2-C) and humanized anti-TM4SF5 antibody (hEC2-C-2) binding to hTM4SF5EC2-C cyclic peptide were measured at 25° C. using the Reichert SPR system. Biotinylated peptides were captured from each flowing cell surface of a streptoavidin-coated sensor chip. Biotin was used as a negative control. Anti-hTM4SF5 monoclonal antibody (mEC2-C) and humanized anti-TM4SF5 antibody were injected at a flow rate of […]. Data were evaluated using Reichert SPR evaluation software.

Assay [2] deals with T2, Myc-tagged recombinant human TM4SF5 protein (human, UniProt O14894 1-197).
T2 construct: whole, on cells; tested in cell lysates by Western blot and immunoprecipitation, not on whole cells; also called hTM4SF5; recombinant TM4SF5 protein; not shown: C-terminal Myc-His tag of the vector pcDNA-3.1/Myc-His(-)B
T2 sequence (looked up): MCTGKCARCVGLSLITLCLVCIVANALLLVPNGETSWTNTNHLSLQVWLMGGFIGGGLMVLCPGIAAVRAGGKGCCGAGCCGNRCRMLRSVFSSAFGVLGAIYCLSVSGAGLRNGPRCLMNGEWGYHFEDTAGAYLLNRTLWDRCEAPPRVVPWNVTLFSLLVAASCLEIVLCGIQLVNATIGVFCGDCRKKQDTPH
Briefly: Western blot of HEK 293F-EV and HEK 293F-TM4SF5 lysates with hybridoma culture supernatant. Background: In western blotting, separated proteins are transferred to a membrane and probed.

The target of assay [3] is T1, hTM4SF5EC2-C cyclic peptide. In words: SPR (Reichert SPR 7500DC), biotinylated cyclic peptide on streptavidin chip, antibody 0 to 80 nM, 1:1 binding with mass transfer. The procedure:
FIG. 6 represents purification and characterization of mouse anti-TM4SF5 monoclonal antibodies recognizing TM4SF5 cyclic peptides. (A) Hydrops abdominis was producted from BALB/c mice by injecting i.p. into the abdominal cavity with hybridoma clone (2A10 clone) derived from FIG. 5. Anti-TM4SF5 monoclonal antibody was purified using protein-A agarose column chromatography and the purified antibody was identified by SDS-PAGE and Coomassie blue staining. (B) The isotype was determined by obtaining titration curves using purified monoclonal antibodies. (C) A binding affinity of monoclonal antibody for cyclic peptide hTM4SF5EC2-C was determined by using ELISA. (D) A binding affinity of monoclonal antibody for cyclic peptide […] was determined by using Reichert Analytical Instruments SPR 7500DC (Reichert). Biotinylated peptides were immobilized on streptavidin chip and the amount of antibody was increased. Kinetic parameters of binding reactions are expressed under sensorgrams.
The affinities of anti-hTM4SF5 monoclonal antibody (mEC2-C) and humanized anti-TM4SF5 antibody (hEC2-C-2) binding to hTM4SF5EC2-C cyclic peptide were measured at 25° C. using the Reichert SPR system. Biotinylated peptides were captured from each flowing cell surface of a streptoavidin-coated sensor chip. Biotin was used as a negative control. […] Data were evaluated using Reichert SPR evaluation software.

Assay [4] concerns the target T3, hTM4SF5R2-3 peptide (human).
T3 peptide: NRTLWDRCEAPPRV
In words: ELISA on coated hTM4SF5R2-3, purified antibody titrated. (ELISA stands for enzyme-linked immunosorbent assay.)

Assay [5] concerns the target T1, hTM4SF5EC2-C cyclic peptide. In words: ELISA on coated hTM4SF5EC2-C, purified antibody titrated.
The target is the same in assay [6]. In words: SPR (Reichert SPR 7500DC), cyclic peptide hTM4SF5EC2-C on chip, antibody 0 to 3.75 nM, 1:1 binding with mass transfer. The method, then:
as §1

Assay [7] shares this target. Briefly: ELISA on coated hTM4SF5EC2-C, purified antibody titrated.
Assay [8] deals with T3, hTM4SF5R2-3 peptide. In words: ELISA on coated hTM4SF5R2-3, purified antibody titrated.
Assay [9] has as its target T1, hTM4SF5EC2-C cyclic peptide. Briefly: SPR, Kd of hEC2-C-2 against Kd of mEC2-C. The procedure:
as §1
For orientation: Surface plasmon resonance follows binding to a sensor surface in real time, without labels.

In general, Kd refers to the concentration at which binding is half-saturated. Broadly, the koff is a measure of how fast the partners let go of each other. A high value points to a short-lived complex. As usually defined, the kon is the rate constant with which the complex forms. Read a low kon as slower complex formation. What is called EC50 (read off the curve) is the concentration at which the effect is half-maximal. High values mean a less potent agent, low ones a more potent agent.

B1: anti-TM4SF5 monoclonal antibody mEC2-C (antibody, V domains shown)
VH: QVQLEESGPGLVAPSQSLSIICTVSGFSLTSYGVTWVRQPPGKGLEWLGVIWSDGSTNYQSALISRLTISRDNSKSQAFLKLNSLQTDDTATYYCARPSNYYYFDYWGQGTTLTVSS
VL: DIVMTQSPSSLAVSAGERVTLSCKSSQSLFDRRTRKTYLAWYQQKPGQSPKLLISWASTRESGVPDRFTGSGSGTDFTLTISSVQAEDLAVYYCKQSYNLFTFGGGTKLEIK
notes: also called mouse anti-TM4SF5 monoclonal antibody; anti-hTM4SF5 monoclonal antibody
In assay [1], B1 had a Kd of at most 0.48 nM and a koff of at most 1e-05 s⁻¹. Also, in assay [2], the binding result is “binds”. In assay [3], this molecule yielded a Kd of 0.488 nM and a kon of 20500 M⁻¹ s⁻¹. Moreover, the binding result with hTM4SF5R2-3 peptide [4] was “no binding (tested: 1e-6 M)”. Further, the “EC50 (read off the curve)” value in assay [5] was around 3 nM.

B2: humanized anti-TM4SF5 antibody hEC2-C-2 (antibody, V domains shown)
VH: EVQLVESGGGLVQPGGSLRLSCAASGFSLTSYGVTWVRQAPGKGLEWLGVIWSDGSTNYQSALISRLTISRDNSKNTAYLQMNSLRAEDTAVYYCARPSNYYYFDYWGQGTLVTVSS
VL: DIQMTQSPSSLSASVGDRVTITCKSSQSLFDRRTRKTYLAWYQQKPGKAPKLLISWASTRESGVPSRFSGSGSGTDFTLTISSLQPEDFATYYCKQSYNLFTFGQGTKVEIK
notes: hEC2-C-2 is the clone that was expressed and tested; also called hEC2-C-2 Ab; hEC2-C-2 IgG
In the case of B2, the dissociation constant (Kd) in assay [1] was around 0.0227 nM. In assay [6], the affinity, expressed as Kd, was 0.0227 nM; the koff came out at 1e-05 s⁻¹; the kon came out at 440000 M⁻¹ s⁻¹. For the same molecule, in [7], the “EC50 (read off the curve)” value is around 0.1 nM. The binding result with hTM4SF5R2-3 peptide [8] is recorded as “no binding (tested: 1e-6 M)”. Moreover, the “fold lower Kd than the original mouse monoclonal antibody mEC2-C” value in assay [9] is around 20 fold.
